Test results as given in US6403765B1, “Truncated Apaf-1 and methods of use thereof” (Thomas Jefferson University, priority 1998, dated 2002).

Target: T1, T7-tagged Bcl-xL (Homo sapiens, UniProt Q07817)
T1 construct: expressed in transfected cells; host or cells: 293 cells
Test: Co-immunoprecipitation of Flag-tagged Apaf-1 variants or procaspase-9 with T7-tagged Bcl-xL in 293 cells
Format: binding
Conditions: anti-Flag immunoprecipitation, anti-T7 blot, 36 hours, FIG. 16
Experimental: In vivo interaction experiments between Apaf-1 variants and Bcl-xL were performed. To analyze the ability of Apaf-1 to interact with Bcl-xL, 293 cells were co-transfected with constructs encoding T7-tagged Bcl-xL and constructs encoding Flag-tagged Apaf-97 (FIG. 16, lane 1), Apaf-1 (FIG. 16, lane 2), Apaf-530 (FIG. 16, lane 3) Apaf-530ΔCARD (FIG. 16, lane 4), or procaspase-9 C287A (FIG. 16, lane 5). After 36 hours, extracts were prepared and immunoprecipitated with a monoclonal antibody to the Flag epitope. The immunoprecipitates (FIG. 16, upper panel) were analyzed by SDS-PAGE and immunoblotted with a horseradish peroxidase-conjugated T7 antibody. The corresponding cellular extracts were also analyzed by SDS-PAGE and immunoblotted with a horseradish peroxides-conjugated T7 antibody (FIG. 16, middle panel) or an anti-Flag antibody (FIG. 16, lower panel).

T1 sequence (Q07817 whole entry): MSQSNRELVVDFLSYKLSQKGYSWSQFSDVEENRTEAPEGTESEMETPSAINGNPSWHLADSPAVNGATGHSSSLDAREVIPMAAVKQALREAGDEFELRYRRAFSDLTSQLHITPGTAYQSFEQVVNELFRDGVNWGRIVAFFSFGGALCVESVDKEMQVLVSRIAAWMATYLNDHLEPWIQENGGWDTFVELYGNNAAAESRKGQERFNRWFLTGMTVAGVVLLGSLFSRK

co-immunoprecipitation with Bcl-xL: capable of immunoprecipitating Bcl-xL
B1: Apaf-530: truncated Apaf-1 (residues 1-530) lacking its WD-40 repeats, recombinant (protein, UniProt O14727 1-530, looked up, fragment)
chain: MDAKARNCLLQHREALEKDIKTSYIMDHMISDGFLTISEEEKVRNEPTQQQRAAMLIKMILKKDNDSYVSFYNALLHEGYKDLAALLHDGIPVVSSSSGKDSVSGITSYVRTVLCEGGVPQRPVVFVTRKKLVNAIQQKLSKLKGEPGWVTIHGMAGCGKSVLAAEAVRDHSLLEGCFPGGVHWVSVGKQDKSGLLMKLQNLCTRLDQDESFSQRLPLNIEEAKDRLRILMLRKHPRSLLILDDVWDSWVLKAFDSQCQILLTTRDKSVTDSVMGPKYVVPVESSLGKEKGLEILSLFVNMKKADLPEQAHSIIKECKGSPLVVSLIGALLRDFPNRWEYYLKQLQNKQFKRIRKSSSYDYEALDEAMSISVEMLREDIKDYYTDLSILQKDVKVPTKVLCILWDMETEEVEDILQEFVNKSLLFCDRNGKSFRYYLHDLQVDFLTEKNCSQLQDLHKKIITQFQRYHQPHTLSPDQEDCMYWYNFLAYHMASAKMHKELCALMFSLDWIKAKTELVGPAHLIHEFVEYR
